Reference: the RNAGym collection of RNA variant scans (doi:10.1093/molbev/msab373)

B1: Azoarcus group I ribozyme (parent)
chain: GUGCCUUGCGCCGGGAAACCACGCAAGGGAUGGUGUCAAAUUCGGCGAAACCUAAGCGCCCGCCCGGGCGUAUGGCAACGCCGAGCCAAGCUUCGGCGCCUGCGCCGAUGAAGGUGUAGAGACUAGACGGCACCCACCUAAGGCAAACGCUAUGGUGAAGGCAUAGUCCAGGGAGUGGCGAAAGUCACACAAACCGG

Variants of: B1
Assay: reverse-splicing fitness (ratio to wild type); higher = more active; in vitro selection; Mg2+ level not given
In short: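 An in vitro group I ribozyme library with randomized positions was T7-transcribed and gel-purified. In triplicate, 10 pmol RNA in EPPS pH 7.5 was reacted with 50 pmoles of a 30-nt RNA substrate for 1 h at 37 °C across several added MgCl2 levels (1–48 mM), then stopped with EDTA. Products were reverse transcribed from a substrate-complementary primer, PCR-amplified and sequenced (HiSeq 4000). Fitness is a variant's read proportion after selection over that before, normalised to wild type.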

First: C82U A111C A145U C169A
Second: C82U A111G A120C A145C C169U
The reverse-splicing fitness of the first is lower: 0.00715 for the first, 0.0106 for the second.

Going from C82U A111G A120C A145C C169G to C82U A111G A120C A145C C169A, the reverse-splicing fitness falls from 0.00713 to 0.00548.

Going from C82U A111G A120C A145C C150U C169A U176G to C82U A111G A120C A145C C150U C169A U176C, the reverse-splicing fitness rises from 0.00468 to 0.00487.

First: C82U A111G A120C A145C C150U C169A U176A
Second: C82U A111G A120C A145G C150G C169A
The reverse-splicing fitness of the first is higher: 0.00891 for the first, 0.00845 for the second.

Compared with C82U A111G A120C A145G C150G C169U, C82U A111G A120C A145G C150G C169G is lower in reverse-splicing fitness: 0.00846 for the first, 0.00678 for the second.

Compared with C82U A111G A120C C150G C169U, C82U A111G A120C C150G C169A is higher in reverse-splicing fitness: 0.00828 for the first, 0.0083 for the second.

Going from C82U A111G A120C C150G C169G to C82U A111C A145U C150U C169U U176G, the reverse-splicing fitness falls from 0.00713 to 0.00669.

First: C82U A111C A145U C150U C169U U176C
Second: C82U A111C A145U C150U C169U U176A
The reverse-splicing fitness of the first is lower: 0.0136 for the first, 0.0154 for the second.

Going from C82U A111G A120C C150A C169A U176G to C82U A111G A120C C150A C169A U176A, the reverse-splicing fitness rises from 0.0042 to 0.0215.

First: C82U A111G A120C C150A C169A U176C
Second: C82U A111G A120C A145U C150G C169A U176C
The reverse-splicing fitness of the first is higher: 0.0156 for the first, 0.00798 for the second.

First: C82U A111G A120C A145U C150G C169A U176A
Second: C82U A111G A120C A145U C150G C169A U176G
The reverse-splicing fitness of the first is higher: 0.00839 for the first, 0.00477 for the second.

First: C82U A111G A120C A145G C150G U176A
Second: C82U A111G A120C A145G C150G U176G
The reverse-splicing fitness of the first is higher: 0.00545 for the first, 0.0033 for the second.

First: C82U A111G A120C A145G C150G U176C
Second: C82U A111G A120C A145G C150U U176C
The reverse-splicing fitness of the first is lower: 0.00793 for the first, 0.0274 for the second.

Going from C82U A111G A120C A145G C150U U176G to C82U A111G A120C A145G C150U U176A, the reverse-splicing fitness rises from 0.00625 to 0.0138.

Going from C82U A111G A120C C150U C169A to C82U A111G A120C C150U C169G, the reverse-splicing fitness rises from 0.00965 to 0.00986.

Compared with C82U A111G, C82U A111G A120C A145C C150G C169G is lower in reverse-splicing fitness: 0.477 for the first, 0.00679 for the second.

Going from C82U A111G A120C A145C C150G C169U to C82U A111G A120C A145C C150G C169A, the reverse-splicing fitness rises from 0.00749 to 0.0076.

First: C82U A111G A120C C150U C169A U176G
Second: C82U A111G A120C C150U C169A U176C
The reverse-splicing fitness of the first is lower: 0.00397 for the first, 0.011 for the second.

Going from C82U A111G A120C C150U C169A U176A to C82U A111G A120C A145U C150G C169G U176A, the reverse-splicing fitness falls from 0.0164 to 0.0063.

First: C82U A111G A120C A145U C150G C169G U176G
Second: C82U A111G A120C A145U C150G C169G U176C
The reverse-splicing fitness of the first is lower: 0.00386 for the first, 0.00388 for the second.

First: C82U A111G A120C A145C C150A C169G U176C
Second: C82U A111G A120C A145C C150A C169G U176G
The reverse-splicing fitness of the first is higher: 0.00993 for the first, 0.00451 for the second.

First: C82U A111G A120C A145C C150A C169G U176A
Second: C82U A111G A120C A145G C169U U176C
The reverse-splicing fitness of the first is higher: 0.0198 for the first, 0.0146 for the second.

First: C82U A111G A120C A145G C169U U176A
Second: C82U A111G A120C A145G C169U U176G
The reverse-splicing fitness of the first is higher: 0.0141 for the first, 0.00401 for the second.

C82U A111G A120C A145C and C82U A111G A120C A145U are the same in reverse-splicing fitness: 0.0519 for the first, 0.0519 for the second.

Compared with C82U A111G A120C A145G, C82U A111G A120C A145G C150A C169U U176G is lower in reverse-splicing fitness: 0.0552 for the first, 0.00508 for the second.

Compared with C82U A111G A120C A145G C150A C169U U176C, C82U A111G A120C A145G C150A C169U U176A is higher in reverse-splicing fitness: 0.014 for the first, 0.015 for the second.

Going from C82U A111C C169A U176G to C82U A111C C169A U176C, the reverse-splicing fitness rises from 0.00617 to 0.0243.

Going from C82U A111C C169A U176A to C82U A111C C150G C169G U176C, the reverse-splicing fitness falls from 0.016 to 0.00488.

Compared with C82U A111C C150G C169G U176A, C82U A111C C150G C169G U176G is lower in reverse-splicing fitness: 0.00576 for the first, 0.00523 for the second.

Compared with C82U A111G A120C A145G C150A C169G, C82U A111G A120C A145G C150A C169A is lower in reverse-splicing fitness: 0.0105 for the first, 0.00928 for the second.

Compared with C82U A111G A120C A145G C150A C169U, C82U A111C C150U C169A U176A is higher in reverse-splicing fitness: 0.0111 for the first, 0.0124 for the second.

First: C82U A111C C150U C169A U176C
Second: C82U A111C C150U C169A U176G
The reverse-splicing fitness of the first is higher: 0.0134 for the first, 0.008 for the second.

First: C82U A111C C169A
Second: C82U A111C C169G
The reverse-splicing fitness of the first is higher: 0.00958 for the first, 0.00866 for the second.

Compared with C82U A111C C169U, C82U A111G A120C A145G C150A U176C is higher in reverse-splicing fitness: 0.0123 for the first, 0.0246 for the second.

Going from C82U A111G A120C A145G C150A U176A to C82U A111G A120C A145G C150A U176G, the reverse-splicing fitness falls from 0.0119 to 0.00727.

Compared with C82U A111G A120C C150A C169G, C82U A111G A120C C150A C169U is higher in reverse-splicing fitness: 0.0102 for the first, 0.0114 for the second.

First: C82U A111G A120C C150A C169A
Second: C82U A111C A145U C150G C169G U176G
The reverse-splicing fitness of the first is higher: 0.0107 for the first, 0.00703 for the second.

Going from C82U A111C C150A C169U U176A to C82U A111C C150A C169U U176G, the reverse-splicing fitness falls from 0.0166 to 0.00777.

Compared with C82U A111C C150A C169U U176C, C82U A111C C150G C169U U176C is lower in reverse-splicing fitness: 0.0169 for the first, 0.0111 for the second.

Going from C82U A111C C150G C169U U176G to C82U A111C C150G C169U U176A, the reverse-splicing fitness rises from 0.00577 to 0.00814.

Compared with C82U A111G A120C A145G C169A, C82U A111G A120C A145G C169G is higher in reverse-splicing fitness: 0.00713 for the first, 0.00801 for the second.

Compared with C82U A111G A120C A145G C169U, C82U A111C C150A C169G is lower in reverse-splicing fitness: 0.0129 for the first, 0.00852 for the second.
